# Assay results from patent US20240317816A1, “PEPTIDES FOR IMMUNOTHERAPY” (Genevive, Inc., priority 2021, published 2024).
# Columns and labels:
# Type in all cases: cell-based
# CCR7 [1] = target: T1, CCR7 (Homo sapiens, UniProt P32248); experiment: gpcrMAX PathHunter β-Arrestin Assay
# T1 construct: expressed in transfected cells
# T1 sequence (P32248 25-378): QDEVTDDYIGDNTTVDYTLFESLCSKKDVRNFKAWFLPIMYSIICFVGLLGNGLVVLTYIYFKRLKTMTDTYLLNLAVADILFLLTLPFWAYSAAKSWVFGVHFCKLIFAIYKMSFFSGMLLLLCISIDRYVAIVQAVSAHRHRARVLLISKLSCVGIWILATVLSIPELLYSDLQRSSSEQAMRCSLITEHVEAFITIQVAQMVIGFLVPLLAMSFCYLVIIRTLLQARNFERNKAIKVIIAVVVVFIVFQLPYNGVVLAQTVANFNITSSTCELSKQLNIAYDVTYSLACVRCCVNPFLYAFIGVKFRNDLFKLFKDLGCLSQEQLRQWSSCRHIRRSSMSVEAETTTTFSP
# Source text: (§1) The PathHunter® β-Arrestin Assay monitored activation of a panel of 168 G-protein coupled receptors (GPCRs) with […] activation of the GPCR in agonist and antagonist mode.
# (§2) where the test sample is the peptide, the vehicle control is DMSO (0% activity), and the control ligand is control compound (100% activity).
# (§3) Peptides SG-3-00802 and SG-3-05021 were identified as an agonist, an antagonist, a PAM (Positive Allosteric Modulator), or an inverse-agonist. Agonist, antagonist, PAM, and inverse-agonist were identified according to the guidelines in Table 8. The basal activity/noise is a % activity of −20% to 20% for both agonist and antagonist modes. A PAM (Positive Allosteric Modulator) binds to a receptor, at a different site than the agonist, to change the receptor's response to the agonist. An inverse-Agonist is a binding partner with agonistic shutting down of basal activity in the cell. An antagonist antagonizes the activity of a particular binding partner.
# CXCR3 = target: T2, CXCR3 (Homo sapiens, UniProt P49682); experiment: gpcrMAX PathHunter β-Arrestin Assay
# T2 sequence (P49682 1-368): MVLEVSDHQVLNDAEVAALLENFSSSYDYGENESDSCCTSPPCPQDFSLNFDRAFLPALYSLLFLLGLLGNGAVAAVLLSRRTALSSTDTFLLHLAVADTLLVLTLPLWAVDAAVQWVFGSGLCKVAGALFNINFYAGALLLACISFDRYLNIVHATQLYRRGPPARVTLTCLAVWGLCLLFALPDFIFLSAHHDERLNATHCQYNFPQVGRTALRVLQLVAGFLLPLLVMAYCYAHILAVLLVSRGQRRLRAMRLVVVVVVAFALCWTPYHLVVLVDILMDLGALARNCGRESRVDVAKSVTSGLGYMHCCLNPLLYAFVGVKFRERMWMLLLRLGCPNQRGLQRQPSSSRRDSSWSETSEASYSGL
# Source text: as §1, §2, §3
# CXCR4 = target: T3, CXCR4 (Homo sapiens, UniProt P61073); experiment: gpcrMAX PathHunter β-Arrestin Assay
# T3 construct: host or cells: U2OS
# Source text: as §1, §2, §3
# [2] = test system: (LPS)-stimulated human monocyte-derived DCs; experiment: CXCL10 induction in LPS-stimulated dendritic cells; details: for dose-dependent response of CXCL10 induction: dose response analysis, same assay setup; for CXCL10 induction: supernatants of low dose LPS-stimulated dendritic cells, vs other peptides and negative control peptide
# Experimental: Studies were performed to identify target peptides that induced CXCL10 production. Target peptides identified from human microbiomes from patients that responded to anti-PD-1 therapy were each synthesized and tested for TNF-α, CXCL10, IL6, and INF-γ induction. Fifteen peptides with high CXCL10 induction were identified for additional testing, indicated with asterisks in the figure (FIG. 1). […] Peptide sequences and characteristics can be found in Tables 4-7.
# Peptides that bound to specific immune cells (1% of the screened peptides) were then evaluated for activity in cell-based assays using isolated primary human T cells, DCs, and macrophages. Immune-driven inhibition of tumor growth relies on DC-mediated recruitment of effector T cells, mainly via CXCL9 and CXCL10. […] Peptides inducing robust CXCL10 secretion (LPS)-stimulated human monocyte-derived DCs from multiple donors, with a mean induction of >2-fold of CXCL10 over OVA323 339 control peptide in DCs were selected for dose response analysis (n=36). […] To confirm cross species activity, 10 of the 15 peptides with EC50<10 μM were screened in vitro for CXCL10 induction in mouse bone marrow DCs.
# CCR7 [3] = target: T1, CCR7; experiment: SelectScreen agonist/antagonist assay, chemokine receptor expressing U2OS cells
# Experimental: In agonist assays, chemokine receptor expressing U2OS cells are thawed and resuspended in Assay Media (DMEM, 1% dialyzed FBS, 25 mM HEPES pH 7.3, 0.1 mM NEAA, 100 U/mL/100 μg/mL Pen/Strep) to a concentration of 312,500 cells/mL. 4 μL of a 10× serial dilution of I-TAC (control agonist starting concentration, 500 nM) or compounds are added to appropriate wells of a 384-well TC-Treated assay plate. 32 μL of cell suspension (10,000 cells) is added to each well. 4 μL of Assay Media is added to all wells to bring the final assay volume to 40 μL. The plate is incubated for 16-24 hours at 37° C./5% CO2 in a humidified incubator. 8 μL of 1 μM Substrate+Solution D Loading Solution is added to each well and the plate is incubated for 2 hours at room temperature. The plate is read on a fluorescence plate reader.
# In antagonist assays, CXCR3-bla U2OS cells were thawed and prepared as described above for the Agonist assay. 4 μL of 10× compounds or assay media was added to appropriate wells of a TC-Treated assay plate. 32 μL of cell suspension was added to the wells and pre-incubated at 37° C./5% CO2 in a humidified incubator with compounds and control antagonist titration for 30 minutes. 4 μL of 10× control agonist I-TAC at the pre-determined EC80 concentration is added to wells containing the control antagonist or compounds. […] The plate is read on a fluorescence plate reader.
# T3 sequence (P61073 whole entry): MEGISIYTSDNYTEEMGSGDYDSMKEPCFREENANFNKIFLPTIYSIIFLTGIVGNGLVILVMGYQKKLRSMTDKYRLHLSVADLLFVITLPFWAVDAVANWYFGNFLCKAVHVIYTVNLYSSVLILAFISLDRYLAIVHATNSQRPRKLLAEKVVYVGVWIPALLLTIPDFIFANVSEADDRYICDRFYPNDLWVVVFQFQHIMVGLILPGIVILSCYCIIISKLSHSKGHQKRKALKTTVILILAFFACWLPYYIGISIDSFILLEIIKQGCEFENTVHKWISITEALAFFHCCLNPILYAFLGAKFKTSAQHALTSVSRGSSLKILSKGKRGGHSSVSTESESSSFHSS
Sequence,gpcrMAX Agonist Mode (% Agonist Activity) (CCR7 [1]) [%],gpcrMAX Antagonist Mode (% Antagonist Activity) (CCR7 [1]) [%],gpcrMAX Agonist Mode (% Agonist Activity) (CXCR3) [%],gpcrMAX Antagonist Mode (% Antagonist Activity) (CXCR3) [%],gpcrMAX Agonist Mode (% Agonist Activity) (CXCR4) [%],gpcrMAX Antagonist Mode (% Antagonist Activity) (CXCR4) [%],dose-dependent response of CXCL10 induction [2],CXCL10 induction [2],SelectScreen Agonist Mode (CCR7 [3]),Interpretation (CCR7 [1])
LGKTDWIEKYFKVKKEKIDKMQRFLQG (peptide for immunotherapy; SG-3-05021),0,−18,−4,−20,1,10,robust dose-dependent response,high CXCL10 inducers,no agonistic activity and No,–
MKVRPSVKPMCEKCKIIRRKGRVMVICENPKHKQRQG [SG-3-00802],0,0,−4,−32,−14,99,robust dose-dependent response,high CXCL10 inducers,weak agonistic activity and No,No
